In US20110300138A1 (published 2011):
Values belong to the molecule of their own block, whether it stands above or below them.

Experiments:
[1] = molecular target: thyroid stimulating hormone receptor (TSHR), full length human TSHR (human) (UniProt P16473); assay: TSH-biotin competition ELISA, TSHR coated wells; 10 µg/mL in assay buffer
[2] = molecular target: TSHR (full length) coated on tubes (human) (UniProt P16473); assay: inhibition of 125I-K1-18 Fab (competitor) binding to TSHR coated tubes; test sample 100 µg/mL in assay buffer
[3] = molecular target: TSH receptor (TSHR), full length human, coated on tubes (human) (UniProt P16473); assay: inhibition of 125I-K1-18 IgG binding to TSHR coated tubes; competitor 125I-K1-18 IgG; sample at 10 µg/mL in assay buffer
[4] = molecular target: TSH receptor (TSHR), full length human, coated on tubes (human) (UniProt P16473); assay: inhibition of 125I-K1-18 IgG binding to TSHR coated tubes; competitor 125I-K1-18 IgG; sample at 100 µg/mL in assay buffer
[5] = molecular target: TSH receptor (full length human TSHR) (human) (UniProt P16473); assay: competition ELISA: inhibition of M22 Fab-peroxidase (competitor) binding to TSHR coated wells; test sample at 1 µg/mL diluted in assay buffer
[6] = molecular target: TSH receptor (full length human TSHR) (human) (UniProt P16473); assay: competition ELISA: inhibition of M22 Fab-peroxidase (competitor) binding to TSHR coated wells; test sample at 1 µg/mL diluted in HBD serum pool
[7] = molecular target: TSH receptor (full length human TSHR) (human) (UniProt P16473); assay: competition ELISA: inhibition of M22 Fab-peroxidase (competitor) binding to TSHR coated wells; test sample at 0.01 µg/mL diluted in assay buffer
[8] = molecular target: TSH receptor (full length human TSHR) (human) (UniProt P16473); assay: competition ELISA: inhibition of M22 Fab-peroxidase (competitor) binding to TSHR coated wells; test sample at 100 µg/mL diluted in HBD serum pool
[9] = molecular target: TSH receptor (full length human TSHR) (human) (UniProt P16473); assay: competition ELISA: inhibition of M22 Fab-peroxidase (competitor) binding to TSHR coated wells; test sample at 0.01 µg/mL diluted in HBD serum pool
[10] = molecular target: TSHR with Trp258 mutated to Ala, expressed in CHO cells (human) (UniProt P16473); assay: cell-based or functional assay
[11] = molecular target: wild type TSHR (human TSH receptor) expressed in CHO cells (human) (UniProt P16473); assay: cell-based or functional assay
[12] = molecular target: TSHR (thyroid stimulating hormone receptor), full length human (human) (UniProt P16473); assay: negative control; competitor ^125I-K1-70 IgG, TSHR coated tubes; 1 µg/mL in HBD
[13] = molecular target: TSHR (thyroid stimulating hormone receptor), full length human (human) (UniProt P16473); assay: negative control; competitor ^125I-K1-70 IgG, TSHR coated tubes; 0.01 µg/mL in HBD
[14] = molecular target: TSH receptor (TSHR), full length human, coated on tubes (human) (UniProt P16473); assay: inhibition of 125I-TSH binding to TSHR coated tubes; 10 µg/mL, diluted in assay buffer
[15] = molecular target: thyroid stimulating hormone receptor (TSHR), full length human TSHR (human) (UniProt P16473); assay: TSH-biotin competition ELISA, TSHR coated wells; negative control, 1 µg/mL in assay buffer
[16] = molecular target: TSHR (thyroid stimulating hormone receptor), full length human (human) (UniProt P16473); assay: negative control; competitor ^125I-K1-70 IgG, TSHR coated tubes; 0.1 µg/mL in assay buffer
[17] = molecular target: TSH receptor (TSHR) coated on tubes (human) (UniProt P16473); assay: inhibition of 125I-K1-70 IgG binding to TSHR coated tubes; negative control 0.1 µg/mL in assay buffer
[18] = molecular target: human TSH receptor (full length) coated on ELISA plate wells (human) (UniProt P16473); assay: TSH-biotin binding inhibition ELISA, TSHR coated wells; 0.1 µg/mL in assay buffer + 100 µg/mL 5B3 IgG; negative control MAb
[19] = molecular target: TSH receptor (full length human TSHR) (human) (UniProt P16473); assay: competition ELISA: inhibition of M22 Fab-peroxidase (competitor) binding to TSHR coated wells; negative control at 10 µg/mL diluted in HBD serum pool
[20] = molecular target: TSH receptor (TSHR), full length human, coated on tubes (human) (UniProt P16473); assay: inhibition of 125I-K1-18 IgG binding to TSHR coated tubes; competitor 125I-K1-18 IgG; negative control sample at 10 µg/mL in HBD serum; mean of duplicate
[21] = molecular target: TSH receptor (TSHR), full length human, coated on tubes (human) (UniProt P16473); assay: inhibition of 125I-TSH binding to TSHR coated tubes; 10 µg/mL, diluted in assay buffer; remark: listed apart in the source
[22] = molecular target: TSH receptor (TSHR) coated on tubes (human) (UniProt P16473); assay: inhibition of 125I-K1-70 IgG binding to TSHR coated tubes; sample 1 µg/mL in assay buffer
[23] = molecular target: TSH receptor (TSHR) coated on tubes (human) (UniProt P16473); assay: inhibition of 125I-K1-70 IgG binding to TSHR coated tubes; sample 1 µg/mL in HBD serum pool
[24] = molecular target: thyroid stimulating hormone receptor (full length human TSHR) (human) (UniProt P16473); assay: ELISA, inhibition of TSH-biotin binding to TSHR coated wells; 0.1 µg/mL, diluted in assay buffer
[25] = molecular target: human TSH receptor (full length) coated on ELISA plate wells (human) (UniProt P16473); assay: TSH-biotin binding inhibition ELISA, TSHR coated wells; 1 µg/mL in assay buffer + 100 µg/mL 5B3 IgG
[26] = molecular target: thyroid stimulating hormone receptor (full length human TSHR) (human) (UniProt P16473); assay: ELISA: inhibition of M22 Fab-peroxidase (competitor) binding to TSHR coated wells; 1 µg/mL, diluted in HBD serum pool

Inhibition of binding (%) [1]: 84.8% | Inhibition of binding (%) [2]: 81.5% | Inhibition of binding (%) [3]: 63.2% | Inhibition of binding (%) [4]: 72.5% | Inhibition of binding (%) [5]: 60.1% | Inhibition of binding (%) [6]: 57.8% | Inhibition of binding (%) [7]: 14.8% | Inhibition of binding (%) [8]: 65.9% | Inhibition of binding (%) [9]: 6.2%
Molecule: 9D33 IgG (antibody)

% inhibition of TSH stimulation; 5B3 10 µg/mL [10]: 15% | % inhibition of TSH stimulation; 5B3 100 µg/mL [10]: 4% | Cyclic AMP produced; 5B3 10 µg/mL + TSH 3 ng/mL [10]: 50.7 pmol/mL | Cyclic AMP produced; 5B3 100 µg/mL + TSH 3 ng/mL [10]: 57.6 pmol/mL | Mutated/wild type (%) of cyclic AMP produced; 5B3 10 µg/mL + TSH 3 ng/mL [10]: 75% | Mutated/wild type (%) of cyclic AMP produced; 5B3 100 µg/mL + TSH 3 ng/mL [10]: 79% | Cyclic AMP produced; 5B3 10 µg/mL + TSH 3 ng/mL [11]: 67.7 pmol/mL | Cyclic AMP produced; 5B3 100 µg/mL + TSH 3 ng/mL [11]: 72.8 pmol/mL | Inhibition of binding (%) [12]: -1.5% | Inhibition of binding (%) [13]: -5.8% | Inhibition of binding (%) [14]: -5.7% | Inhibition of binding (%) [15]: -8.3% | Inhibition of binding (%) [16]: -1.2% | Inhibition of binding (%) [17]: 1% | % inhibition of TSH-biotin binding [18]: -6.4% | Inhibition of binding (%) [19]: 4.9% | Inhibition of binding (%) [20]: -0.1%
Molecule: 5B3 IgG (antibody)

Inhibition of binding (%) [21]: 76.7% | Inhibition of binding (%) [22]: 56.4% | Inhibition of binding (%) [23]: 15.4% | Inhibition of binding (%) [24]: 26.1% | % inhibition of TSH-biotin binding [25]: 46.7% | Inhibition of binding (%) [26]: 7.8%
B1: 5C9 IgG (antibody, from another filing, V domains shown)
VH: EVQLVESGGGLIQPGGSLRLSCAASGFTVSSNYMSWVRQAPGKGLEWVSVTYSGGSTSYADSVKGRFTISRDNSKNTLYLQMNSLRAEDTAVYYCARGGRYCSSISCYARSGCDYWGQGTLVTVSS
VL: AIQMTQSPSSLSASVGDRVTITCRASQSISNYLNWYQQKPGKAPKLLIYAASSLQSGVPSRFSGSGSGTDFTLTISSLQPEDFATYYCQQSYSSPSTTFGQGTKLEIK
